Columns and labels:
[1] = target: T1, Plasmodium falciparum Δ1-195 GCH1 (core GCH1) (Plasmodium falciparum, UniProt Q8I5H7); assay: fluorescence of iodine-oxidised neopterin product; initial velocity at various GTP concentrations; assay type: biochemical; settings: GTP as substrate; called competitive by the authors
T1 construct: gene PF3D7_1224000; C-terminal core domain, residues 196-389 (N-terminal 1-195 deleted); pET45b(+), E. coli BL21(DE3)RIL, Ni-sepharose purified (His tag); homodecamer

[2] = tested on: Nc1nc2c(ncn2[C@@H]2O[C@H](COP(=O)(O)OP(=O)(O)OP(=O)(O)O)[C@@H](O)[C@H]2O)c(=O)[nH]1; assay: fluorescence of iodine-oxidised neopterin product; assay type: biochemical, Plasmodium falciparum; settings: 50 mM Tris–HCl pH 7.8, 100 mM KCl, 20% glycerol, 37°C

T1 sequence (Q8I5H7 entry or part of it, stated change not applied): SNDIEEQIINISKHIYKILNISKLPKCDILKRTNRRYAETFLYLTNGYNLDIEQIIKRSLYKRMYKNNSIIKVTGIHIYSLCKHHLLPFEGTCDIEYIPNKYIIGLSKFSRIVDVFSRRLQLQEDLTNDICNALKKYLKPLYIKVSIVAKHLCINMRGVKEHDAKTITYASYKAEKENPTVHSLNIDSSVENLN

Row | Molecule | fluorescence of iodine-oxidised neopterin product; initial velocity at various G [1] | Km [2] [µM] | kcat [2] [s⁻¹]
1 | Nc1nc2c([nH]c(=O)n2[C@@H]2O[C@H](COP(=O)(O)OP(=O)(O)OP(=O)(O)O)[C@@H](O)[C@H]2O)c(=O)[nH]1 [8-oxo-GTP] | 8-oxo-GTP could inhibit the activity of P. falciparum GCH1 with reduced fluorescent signal | – | –
2 | Plasmodium falciparum Δ1-195 GCH1 (core GCH1) (Plasmodium falciparum 3D7) | – | 12.06 | 0.039
